# Laboratory results from paper PMC8666670, “Malonyl-acyl carrier protein decarboxylase activity promotes fatty acid and cell envelope biosynthesis in Proteobacteria” (The Journal of Biological Chemistry, 2021).
# Substrate: CC(=O)SCCNC(=O)CCNC(=O)[C@H](O)C(C)(C)COP(=O)(O)OP(=O)(O)OC[C@H]1O[C@@H](n2cnc3c(N)ncnc32)[C@H](O)[C@@H]1OP(=O)(O)O
# Test: radiochemical TLC acetyltransferase assay, one-site Hill fit
# Type: biochemical, Escherichia coli
# Settings: 500 μM glucosamine-1-phosphate, 20 mM MgCl2, 37 °C, labelled compound
protein,measurement,value
"GlmU (Escherichia coli K-12) (protein, full-length in pET28a, His-tag kept; expressed in E. coli BL21(DE3)) MLNNAMSVVILAAGKGTRMYSDLPKVLHTLAGKAMVQHVIDAANELGAAHVHLVYGHGGDLLKQALKDDNLNWVLQAEQLGTGHAMQQAAPFFADDEDILMLYGDVPLISVETLQRLRDAKPQGGIGLLTVKLDDPTGYGRITRENGKVTGIVEHKDATDEQRQIQEINTGILIANGADMKRWLAKLTNNNAQGEYYITDIIALAYQEGREIVAVHPQRLSEVEGVNNRLQLSRLERVYQSEQAEKLLLAGVMLRDPARFDLRGTLTHGRDVEIDTNVIIEGNVTLGHRVKIGTGCVIKNSVIGDDCEISPYTVVEDANLAAACTIGPFARLRPGAELLEGAHVGNFVEMKKARLGKGSKAGHLTYLGDAEIGDNVNIGAGTITCNYDGANKFKTIIGDDVFVGSDTQLVAPVTVGKGATIAAGTTVTRNVGENALAISRVPQTQKEGWRRPVKKK",Km,400 µM
